± gives the uncertainty stated by the source.

A short description of the data set: amyloid nucleation score (Sup35N fusion, yeast selection) (log enrichment); library NNK3; higher = more nucleation; inactive = no reads after selection. The essentials:
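Random libraries were run with three technical output replicates. In each, psi-negative yeast expressing Sup35N fused to peptides of 20 random codons were induced 24 hours with 100 μM copper sulfate and grown 7 days at 30°C on medium lacking adenine and uracil, and input and output plasmid inserts were Illumina-sequenced. The nucleation score is the DiMSum log enrichment of output over input reads, centred on the mode score of non-aggregating sequences, and sequences under 100 input reads were excluded.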
Regarding FCMGLHSWNSNGRFCAVCTY, the amyloid nucleation score entry is “inactive”.
For the substance FCRIAVMFKSNQELYRMDNG, the amyloid nucleation score result was “inactive”.
Consider FCRQCNIVLFDQSVSL, for which the amyloid nucleation score was 1.87 ± 0.11.
Regarding FCTVNH, the amyloid nucleation score result is “inactive”.
With FCYGSFGGLRELYCC the entry was “inactive”.
In the case of FDFESRKLVVGICGCSQAGL, the amyloid nucleation score entry was “inactive”.
The result for FDIIVQITYHVWNMNVHF reads 0.932 ± 0.1.
Regarding FDLGGLLPL, the amyloid nucleation score entry was “inactive”.
The result for FDNFADNRLNKVSYKYQT reads 1.27 ± 0.12; that for FDNKQGSFLKVLTFNFARVA, “inactive”.
With FDSLFYCGYTYHYQVARKFR the entry was “inactive”; with FDTVVLCWVIGIRIGPHNAL, “inactive”; with FEIECNNGSGASTRLTSRIN, “inactive”.
With FEMPLMWYCGGFYSSPLLCK the entry was “inactive”.
Consider FEYEKMLKAYGEGVIGSWLF, for which the amyloid nucleation score result was “inactive”.
With FEYLSMYELGISVE the entry was “inactive”; with FEYLSMYELGISVMSTAH, “inactive”.
The result for FFAILHLRVNARMCYGNGAY reads 0.435 ± 0.48; that for FFALPDLALYNFFFCNPHYL, 2.27 ± 0.064.
The result for FFASRENPSFHFVSFWTYTW reads “inactive”.
Turning to FFERSR, the amyloid nucleation score entry was “inactive”.
Regarding FFEWRTGLFVLWLSEVTSLM, the amyloid nucleation score result is “inactive”.
With FFGWSSRVSSACAVPVEINS the entry was “inactive”; with FFILFMRRLDW, 0.323 ± 0.22.
The result for FFIYKFYPFRGISLSAVRIR reads “inactive”; that for FFKYYG, “inactive”; that for FFLSTTGSMPHFPFKVSSSF, 0.088 ± 0.24.
The result for FFLVLNSACME reads 0.058 ± 0.36; that for FFNDSYIRYFSCM, 0.02 ± 0.77.
FFNSVMIYGWS yielded an amyloid nucleation score of 0.07 ± 0.3.
The result for FFSAFID reads “inactive”; that for FFSISFS, “inactive”.
As for FFSLLT, the amyloid nucleation score result is “inactive”.
With FFSTLVYNRRIVCWFRSGR the figure was -1.49 ± 2.5.
The result for FFVFSRLVYPWCGMFFLSLK reads “inactive”; that for FFVWKHLLMRFRYALACTLM, “inactive”; that for FGAKR, 0.909 ± 0.18.
The substance FGLEFWTYTSIRFWLEYKPH registered an amyloid nucleation score of 0.972 ± 0.099.
As for FGMSILVFFTVDRSLET, the amyloid nucleation score result was “inactive”.
The result for FGRIGSYWTMVQ reads “inactive”; that for FGSFQMGLWFVMNEVDQVKG, “inactive”.
With FGTHFIESSNVNNNTPVVSP the entry was “inactive”.
With FGTNVPISNLIKEVLYIRYS the entry was “inactive”.
FGYHYWVSATCMSLALSWLT: the amyloid nucleation score result is “inactive”.
The result for FGYNWDCCRYMHDPRGLVTT reads “inactive”; that for FHCSDYADVHSILTLLLVHT, “inactive”; that for FHQLGICKFKA, -0.387 ± 0.88.
With FHTFSVCVGRGTMYYRALEE the figure was 0.277 ± 0.23; with FHTSKLHRFPHLK, “inactive”.
The result for FIIAWWCNVSVDKTSERHYV reads 1.55 ± 0.079; that for FIIISIYGCIIVRWTKRAWG, “inactive”.
Consider FILQGFPE, for which the amyloid nucleation score result is “inactive”.
FILSVWLYTS: the amyloid nucleation score entry is “inactive”.
With FIPYYRCDQMLSGILVRFFS the entry was “inactive”; with FIRVFYSCIYVDKVLCEGRL, 1.5 ± 0.11; with FISDRQSASYPWVQFWPE, 0.206 ± 0.7.
The result for FISSLSRSFL reads “inactive”.
With FITGCSYVAYFMIAA the entry was “inactive”.
As for FIVPWLFICRVVRNCVDSAV, the amyloid nucleation score entry is “inactive”.
With FIVVQGIAPCGFTS the entry was “inactive”; with FIYNVDVHCASSVNIGWGQK, 2.83 ± 0.08.
With FKCAADCVFLALYYMDGWKS the entry was “inactive”.
The result for FKLDSMCRLKRAAN reads “inactive”; that for FKRGTCISSSNYNIYCYWKC, “inactive”; that for FKRLLARV, -0.362 ± 0.98.
Turning to FKSLLSRISHFKFASGWYVH, the amyloid nucleation score result is “inactive”.
Substance FKVSFIWCCNFKMSCGAYER had an amyloid nucleation score of 0.446 ± 0.4.
As to FLAMSSASMFRYFKPVASSE, the amyloid nucleation score was determined as 2.91 ± 0.066.
Consider FLAVLNLPGCGMDMRNLINL, for which the amyloid nucleation score result is “inactive”.
With FLCIVSAYF the entry was “inactive”.
With FLCLSKGTGVAISKMSQN the entry was “inactive”; with FLCMLVYI, 1.23 ± 0.11; with FLDFQLFLCTHYLGRI, “inactive”.
On to FLDSLYKRGCNKFGQLWR, for which the amyloid nucleation score result is “inactive”.
With FLIKNMY the entry was “inactive”; with FLNCSSQKNATPHILFNGGM, “inactive”.
With FLNIGYLNSRYNFLRNSVLV the entry was “inactive”; with FLNSKGFTIAGYKNSKWGSR, “inactive”.
FLPDSFESYEKEVHTMDESS: the amyloid nucleation score result is “inactive”.
The result for FLRCIC reads “inactive”.
FLRFWARSNPGTWLIVHGMG showed an amyloid nucleation score of -0.69 ± 1.4.
With FLRGLVK the entry was “inactive”; with FLRKFRLTLIYVTRASWLGG, “inactive”.
The result for FLRKGYFNSTSFTDALGGNL reads -1.26 ± 1.8; that for FLRMHVRGFDTFRARQ, “inactive”; that for FLRRLSRKTKDMDSSRGMCC, “inactive”.
The result for FLSFTSRNLTYFCDCRFSLI reads “inactive”.
As for FLSVECLRAMTWCQLLDAGS, the amyloid nucleation score entry was “inactive”.
For FLTAKKSEFERTLEFRLWWC, the amyloid nucleation score entry was “inactive”.
With FLTVIGLYNLSDGPCCK the figure was 1.79 ± 0.06; with FLTWRIGVVS, “inactive”; with FLVICCCWD, 2.08 ± 0.062.
As for FLWLKHSQSHVRERL, the amyloid nucleation score entry was “inactive”.
The result for FLWMSAEGLSK reads “inactive”; that for FLYDVFPSPGLMMVLWFGLC, “inactive”; that for FMEYFTCGV, “inactive”.
Turning to FMGDRLKEAGDRTLYDQKVG, the amyloid nucleation score result was “inactive”.
With FMGFFYNFYVPKLKSSVHNE the figure was 0.303 ± 0.34; with FMGGIFAVFTRILVHSIWYS, “inactive”.
The result for FMGSGQVVNTRASGIMGLFF reads “inactive”.
Regarding FMISDNMAQCMERGYRAEVF, the amyloid nucleation score result is “inactive”.
On to FMIYYLGLFRR, for which the amyloid nucleation score entry was “inactive”.
Regarding FMKCDTTSAAGCRRSSSRDK, the amyloid nucleation score result is “inactive”.
The result for FMLRFPLPPSKIHVRYMPTC reads “inactive”; that for FMSSFISMYFASAFHYAMWH, “inactive”.
As to FMVILMRAISMSKIKSILYH, the amyloid nucleation score result was “inactive”.
With FMYVRCQIVADTCFGIASWG the figure was -0.032 ± 0.82; with FNANI, 0.12 ± 0.34; with FNDLSAVFYLQGLKLDL, “inactive”.
The result for FNFNLKFKTFGKMYFTGPES reads 0.628 ± 0.25; that for FNHSRYDSVFWFVVHPSYEG, “inactive”; that for FNIHSQIAFLFLCGYLESTV, 1.94 ± 0.075.
The result for FNRLDTNTTSGPRTGTTLEM reads “inactive”; that for FNVYMIITNFLDPL, 2.64 ± 0.062.
As to FNYMCNLNVCRNIILMTLEL, the amyloid nucleation score was determined as 2.69 ± 0.07.
Consider FPCSGPACYIYYTLHGLSLG, for which the amyloid nucleation score entry was “inactive”.
With FPFKV the entry was “inactive”; with FPIDC, 0.082 ± 0.58; with FQESVIWKVYRNNNYRSLTV, “inactive”.
The result for FQNDDVTS reads “inactive”; that for FQPSSASPIGWIGMSAFDSW, “inactive”; that for FRFASYRSYLIVMP, “inactive”.
The result for FRFSMSL reads “inactive”.
As to FRFTFLMRNML, the amyloid nucleation score entry is “inactive”.
With FRFWPFSPICNWY the entry was “inactive”; with FRFYLCDDFMCNVLHYQPRN, 3.19 ± 0.073.
The result for FRILIIFSVYGSMISHLP reads “inactive”; that for FRPAN, -0.286 ± 0.78; that for FRQLQGTSMLYLATPWS, “inactive”.
With FRSKLTW the entry was “inactive”; with FRVLYDCGTGYAVCYAMEVK, “inactive”; with FRVVNMSWCAPNLTLRFKYL, “inactive”.
FRYLNLKKDD: the amyloid nucleation score result is “inactive”.

Source of the values: the supplement of paper PMC12042874.
